# ± gives the uncertainty stated by the source.
# Experiment: amyloid nucleation score (Sup35N fusion, yeast selection) (log enrichment); library NNK1; higher = more nucleation; inactive = no reads after selection
# Outline: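 Output and input plasmid inserts were sequenced by Illumina after psi-negative yeast carrying Sup35N fused to peptides of 20 random codons had been induced 24 hours with 100 μM copper sulfate and grown 7 days at 30°C on medium lacking adenine and uracil. The nucleation score is the DiMSum log enrichment of output over input reads, centred on the mode score of non-aggregating sequences. Sequences with under 100 input reads were excluded.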
row,Substance,amyloid nucleation score
1,LSIRYWCYNLRLVQAHCFRV,-0.657 ± 0.56
2,RWFRNAIGGIL,-0.586 ± 0.59
3,QIYASKWPYEIEFKNFMRVA,0.247 ± 0.42
4,SFISKLLNYVVAFCVVCDEI,0.127 ± 0.5
5,NMQTYGGLKE,0.116 ± 0.71
6,VSGFGSTYLLCVN,0.589 ± 1.2
7,DHASGLVLLCLVWLGLMSLK,0.501 ± 0.43
8,ALNLKCIRLSGV,0.496 ± 0.47
9,EYLSDDGI,0.131 ± 0.28
10,VVYDGIMSWIYYCRFVVDAV,inactive
11,IHVPNYVDRELELRASNSSR,-0.298 ± 0.32
12,GCFMLSSGLGISEPGSFWWG,0.224 ± 0.53
13,EKRFFVSLVNVYLDL,4.57 ± 0.071
14,RQIGTAFSDYLHGWCVFSFR,3.88 ± 0.11
15,SLTTHSAGHPLYIHVFNVLV,0.147 ± 0.35
16,IFSGWCVRVFCSFLKHNCLN,-0.408 ± 0.47
17,FVVEWWLASRMGLLIRGYRR,-0.462 ± 0.58
18,YKSNKWSPSQKRKG,-1.37 ± 2.7
19,GTGSSAVDVFSGLMCGTDVL,-0.145 ± 0.46
20,PDFIHFY,0.182 ± 0.38
21,RVWYGFYCELITTPRFASGV,-0.322 ± 1.7
22,FGYSAGHERMVHCVGLRSSG,1.37 ± 0.69

row,Substance,amyloid nucleation score
1,CQSLPKFLHANVKYNSVSGA,-0.16 ± 0.24
2,WHALVNRGHAWSRIGQDAGC,-0.003 ± 0.79
3,YWNDVAS,-0.931 ± 0.75
4,MGSVVHRKVEVHGRFKCGAT,0.477 ± 0.93
5,RDWTRGHACRYCSWQWVARG,0.529 ± 0.88
6,HGVLCSWSRLKTRFDQNGIS,0.616 ± 1.2
7,AEWLWEVGGMGCQVKGEEAR,-0.34 ± 0.36
8,VNSLVVLF,1.84 ± 0.23
9,VPNASLSWISFISHLFYMSS,0.034 ± 0.37
10,FIHSRE,0.366 ± 0.31
11,MFMHELHMVDP,-0.873 ± 0.77
12,PRFKTMVVTHFLSFNFYGWN,-0.505 ± 0.39
13,RQDQLFPICEDSTT,0.612 ± 0.97
14,LPSGLRCRTSRMDVAKLAK,0.441 ± 0.47
15,TEMDDF,0.875 ± 0.54
16,MVKRRV,-0.232 ± 1.2
17,EFLRNGLIILIVSLSAGELS,0.137 ± 0.23
18,WYRTRIQRRIFFNRAIYSTA,0.368 ± 0.85
19,NRIPHGSRRSRAISKVRDA,0.728 ± 0.97
20,TAGLIILINSYASGRLTGDP,6.639 ± 0.049
21,TGFKI,-0.973 ± 0.97
22,NSPGCKCRSKGLISINST,inactive

row,Substance,amyloid nucleation score
1,LVVDRGVNGCAFSWDTNDLS,-0.52 ± 0.71
2,DGTVGSYCMIFWELYRDNFF,-0.761 ± 1.2
3,YSVSCSVF,-0.341 ± 0.31
4,EQVSKMGNTCMSVDRVRWQN,-0.411 ± 0.87
5,HTHESNRPHYYCGADCLPKD,2.71 ± 0.14
6,REDAYR,-0.429 ± 0.91
7,GLGCYVKNKTHESYARSTAH,-0.671 ± 0.56
8,TYCMYDYRKAVGEGWQFR,0.124 ± 0.38
9,FSRSWGDCIGERCGVV,0.307 ± 0.38
10,GLRATVYITLRFE,-0.442 ± 0.43
11,FNSFCFQNVTLW,inactive
12,LFSRVFSAANVIRHNFLFME,0.746 ± 0.9
13,LLCTYISTEAPIVTFLRLTY,-0.667 ± 0.44
14,RCDSMSCTVYCEGNS,-1.03 ± 1.5
15,SSYVMVCMKTYWCQEL,2.45 ± 0.18
16,CSDFITLSMFV,0.99 ± 0.66
17,SNNGCRIQRGVRNLAKGSTL,-1.09 ± 0.9
18,VFWGDKMSLLDLSVTNIMSI,1.49 ± 0.4
19,VVLMLRDVEEFRQ,-0.38 ± 0.21
20,HMFIFPYGAFMMERLFSGAI,0.198 ± 0.97
21,VVTQCLLAAAVHLYCNCHHM,6.972 ± 0.045
22,DRRRNCYFIRLWQGLGYIS,inactive

row,Substance,amyloid nucleation score
1,MVYLGECCITFYSFNSYRVM,4.55 ± 0.053
2,PCWLQMSCR,-0.148 ± 0.79
3,RMIDMGTDTVFCLMSFARIN,-0.354 ± 0.22
4,SDFNNTFIYSGEKQVLISTC,-0.147 ± 0.34
5,SIIFGVKTFSVFSKIYGLCW,3.3 ± 0.067
6,RESASSNGYVYILCMQRVPR,0.102 ± 0.34
7,ALKHPML,-0.815 ± 0.49
8,HAAYTEVFILLLNDNILPHL,-0.393 ± 0.45
9,RWNRSSDTCLCLHSMMLT,-0.518 ± 1.1
10,VVTWVYASSVVLSSLPREGA,-0.115 ± 0.26
11,KYASVGASFVWC,0.102 ± 0.34
12,LRDNMLSEGMQLYCMARASA,-0.201 ± 0.72
13,SVPKLKAEVE,-0.273 ± 0.2
14,CPGNIIYTFPIDVPKHG,0.641 ± 0.79
15,ALYKSPLVNRSYAFLYSGA,0.964 ± 0.69
16,RAISVLPIMSVRAH,0.085 ± 0.25
17,PCSVVV,-0.246 ± 0.32
18,FGLIGTPCERMVSGLEV,-0.806 ± 0.88
19,YVTDVDF,inactive
20,AFYLN,-0.055 ± 0.34
